Measured values as given in the supplement of paper PMC12764529.
± gives the half width of the 95% confidence interval.

What was measured:
[1] = folding stability dG unfold (combined trypsin and chymotrypsin); higher = more stable
In short: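 Designed mini-proteins with no cysteine and under 80 residues were kept only if AlphaFold2 dimer inter-PAE was above 15. In a PA-tagged cDNA display construct, they were digested with trypsin and chymotrypsin and then sequenced. K50 was inferred by Bayesian fitting of counts, and unfolding free energy was derived per protease or combined against a sequence-predicted unfolded-state K50 and a shared folded-state K50.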

[2] = folding stability dG unfold from chymotrypsin proteolysis; higher = more stable
Method: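 Folding stability of de novo designed mini-proteins (<80 aa, no Cys; designed by TrROS, TrMRF, ProteinMPNN and the joint model) was measured by cDNA display proteolysis with trypsin and chymotrypsin. Each protease was used at 11 concentrations in a threefold dilution series plus a no-protease condition. K50 was inferred by Bayesian fitting of sequencing counts, and dG unfold was derived against a sequence-predicted unfolded-state K50 (Tsuboyama et al. method). Sequences shown include variable-length N-terminal GS-type padding (SAGGSAGG...) inside a display construct carrying a PA tag. Rows were kept only if the AF2 dimer inter-PAE was >15, to exclude likely homo-oligomers.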

| Sequence | folding stability dG unfold [1] [kcal/mol] | folding stability dG unfold [2] [kcal/mol] |
| --- | --- | --- |
| SAGGNIEIEIPIPKEDLKDNDFEEAKEYVREYVRMIAREQGLPPGFPIKDIDVQPHPNYYMVKIEIPSAGGS [r16_368_TrROS] | 0.401 ± 0.16 | 0.868 ± 0.26 |
| SAGGNIKITDIEMEPMNMPRKNEDGKEKPRPMWQFKVRIRDDGKPIAEVPFTSMDDMRNAVKKLLKKSAGGS [r8_21_TrROS] | -0.182 ± 0.39 | -0.0964 ± 0.26 |
| SAGGNIPPGETWKIKFPGKPIEIQMQQINGKPMYRLRDKNNKPHGTMTPDEADEFLDKLPPNWEIERYSAGG [r13_657_TrROS] | -0.353 ± 0.22 | -0.253 ± 0.37 |
| SAGGPKVVKGKKVEKVELEVGKLPDGVELVKVKVRSKEVDKEFTFTFEPGQDLGEFGKATGFDIGVESAGGS [r16_676_TrMRF] | 0.14 ± 0.17 | 0.552 ± 0.16 |
| SAGGSAGGEETLRVTEITDVEKPDNGPRIKFPIEHDGKKKPIDINVPPDDLKPGDTIPLEEILKSAGGSAGG [r6_585_TrROS] | 0.222 ± 0.15 | 0.847 ± 0.072 |
| SAGGSAGGGPDLKVTDIEFDPETGEIRIRTEAGGKLVAEVTIKGAPPVPVYPDKDGNWYPAGAKSAGGSAGG [r6_832_TrMRF] | 0.517 ± 0.12 | 0.986 ± 0.062 |
| SAGGSAGGGPYKTSYAIVDGSVVASTEGDPETGVVTSTFTFDGSDVEYTTPATPGEAVTRTVSLSAGGSAGG [r6_972_JUSTAS] | 0.346 ± 0.047 | 0.797 ± 0.059 |
| SAGGSAGGITLVVEGMPAEQMEEMKQKIREFAEDYNVEVNIDQERNPDGRMRATVEIEPPPGDPSAGGSAGG [r6_907_TrROS] | -0.767 ± 0.28 | -0.472 ± 0.15 |
| SAGGSAGGIWIPADEFKGQPIKVRIKHNGNERPIEEVKIKSHPDGFVFIEFPPELPENMKIEIESAGGSAGG [r6_630_TrROS] | -0.0114 ± 0.15 | 0.453 ± 0.12 |
| SAGGSAGGMIRTYELPETGEVRVLIRTPNPEEAEALAAEVRAELAAAGLDVPVEISPGPASALDSAGGSAGG [r6_641_JUSTAS] | 0.283 ± 0.18 | 0.703 ± 0.2 |
| SAGGSAGGMIVELPTPDDETLTLTTRPTPDGSVPVTATRLTPDSTEVTTVSTADPAVVELVAAASAGGSAGG [r6_607_JUSTAS] | < -1 | -0.448 ± 0.26 |
| SAGGSAGGMKITITFPDGTKKEIEVESEEELLEAIKKLAEELGLEKEVTVTVEYNGKTYTITLKSAGGSAGG [r6_531_TrROS_Hall] | 5.06 ± 0.32 | 5.13 ± 0.25 |
| SAGGSAGGMKTKTYTIPLSQVSSIDPSGTVSEEEVKALGLPPNFKATVVPLPGSEEAVEVTVPESAGGSAGG [r6_553_JUSTAS] | -0.381 ± 0.18 | 0.115 ± 0.11 |
| SAGGSAGGMTIPAEKIKGKPIKVLVDRGNAIFPLKEAKVKTKPDGRVELYVPKELGEDTKIIAGSAGGSAGG [r6_628_TrMRF] | < -1 | -0.573 ± 0.18 |
| SAGGSAGGMVKTYKTDKETAIELAEKIKKQGVKVEITPHPDSTLLTITINEPKIDPKNSPNIIISAGGSAGG [r6_392_JUSTAS] | < -1 | 0.0843 ± 0.3 |
| SAGGSAGGPIRIDPEDGRIRNNGQPYKFDKIEDIEPNENNKSIRLTIRMKNGKEHKQPIPADDISAGGSAGG [r6_682_TrROS] | < -1 | -0.759 ± 1 |
| SAGGSAGGPKWRRYTIPLDKIKEIDPGGTVTLDDIQDLGLPPDHEIRVVPRPDGEPWVSIEVPYSAGGSAGG [r6_553_TrROS] | 0.201 ± 0.11 | 0.506 ± 0.14 |
| SAGGSAGGSAAGFTAPVVQVRTENGKIYIDVKNSSVSLTVPENAEITPLESEVVKITPLPAPSAGGSAGGSA [r18_468_JUSTAS] | 0.00621 ± 0.22 | 0.542 ± 0.1 |
| SAGGSAGGSAARAYTDVDPVPSTLPNGERVVRVTEAGTGTTSDVPLEALADLDRGAGVTVPPSAGGSAGGSA [r18_288_JUSTAS] | -0.249 ± 0.069 | 0.538 ± 0.059 |
| SAGGSAGGSADNPQVERTIHDPNGGFKVMINPNDNSIEIWPYKNDKPEPKTFDSPEALDDISAGGSAGGSAG [r3_426_TrROS] | -0.387 ± 0.29 | 0.136 ± 0.17 |
